T1: Mouse PD-1 overexpressed on HEK293 cells (mouse, UniProt Q02242 25-288)
T1 construct: whole, on cells
T1 sequence (looked up): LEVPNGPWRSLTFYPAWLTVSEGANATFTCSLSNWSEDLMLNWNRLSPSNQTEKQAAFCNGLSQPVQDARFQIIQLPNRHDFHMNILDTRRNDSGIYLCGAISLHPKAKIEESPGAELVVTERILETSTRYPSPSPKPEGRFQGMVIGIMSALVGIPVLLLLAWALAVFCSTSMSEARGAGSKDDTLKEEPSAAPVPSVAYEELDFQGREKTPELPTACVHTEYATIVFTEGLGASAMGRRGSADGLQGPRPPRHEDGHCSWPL

T2: Recombinant mouse PD-1 extracellular domain (with an immunoglobulin Fc region or a His tag) (mouse, UniProt Q02242 25-169)
T2 construct: extracellular domain; Coated on ELISA plates; not shown: either an immunoglobulin Fc region or a His tag
T2 sequence (looked up): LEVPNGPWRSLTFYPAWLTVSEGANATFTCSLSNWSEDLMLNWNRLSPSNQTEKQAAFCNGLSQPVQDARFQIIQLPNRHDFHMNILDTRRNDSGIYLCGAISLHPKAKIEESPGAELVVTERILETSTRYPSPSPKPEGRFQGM

B1: Anti-PD-1 IgG #4 (antibody, V domains shown)
VH: QVQLVQSGSELKKPGASVKVSCKASGYTFTDYSMHWVRQAPGQGLEWMGWINIETGEPTYAQGFTGRFVFSLDTSVSTAYLQISSLKAEDTAVYFCARDYYGTYFYAMDYWGQGTLVTVSS
VL: EIVLTQSPATLSLSPGERATLSCTASSSVSSSYLHWYQQKPGLAPRLLIYSTSNLASGIPDRFSGSGSGTDYTLTISRLEPEDFAVYYCHQYHRSPLTFGQGTKLEIK
B2: Anti-PD-1 IgM #4 (antibody)
VH: B1 VH
VL: B1 VL
chain: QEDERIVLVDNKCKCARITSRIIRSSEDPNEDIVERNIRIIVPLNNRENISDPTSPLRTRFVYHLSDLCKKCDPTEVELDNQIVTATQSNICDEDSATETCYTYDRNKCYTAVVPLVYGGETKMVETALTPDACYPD
B3: Anti-PD-1 IgG #3 (antibody, V domains shown)
VH: QVQLVQSGAEVKKPGASVKVSCKVSGYSLSKYDMSWVRQAPGKGLEWMGIIYTSGYTDYAQKFQGRVTMTEDTSTDTAYMELSSLRSEDTAVYYCATGNPYYTNGFNSWGQGTLVTVSS
VL: DIQMTQSPSSLSASVGDRVTITCQASQSPNNLLAWYQQKPGKAPKLLIYGASDLPSGVPSRFSGSGSGTDFTLTISSLQPEDFATYYCQNNYYVGPVSYAFGGGTKVEIK
B4: Anti-PD-1 IgM #3 (antibody)
VH: B3 VH
VL: B3 VL
chain: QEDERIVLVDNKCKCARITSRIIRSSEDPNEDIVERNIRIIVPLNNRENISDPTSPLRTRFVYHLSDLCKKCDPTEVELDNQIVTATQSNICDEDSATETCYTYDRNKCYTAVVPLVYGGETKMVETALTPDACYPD
B5: Anti-PD-1 Hexameric IgM (IgHM) #3 (antibody, V domains shown)
VH: B3 VH
VL: B3 VL
B6: Anti-PD-1 pentameric IgM #5 (antibody)
VH: QVQLVESGGGVVQPGRSLRLDCKASGITFSNSGMHWVRQAPGKGLEWVAVIWYDGSKRYYADSVKGRFTISRDNSKNTLFLQMNSLRAEDTAVYYCATNDDYWGQGTLVTVSS
VL: EIVLTQSPATLSLSPGERATLSCRASQSVSSYLAWYQQKPGQAPRLLIYDASNRATGIPARFSGSGSGTDFTLTISSLEPEDFAVYYCQQSSNWPRTFGQGTKVEIK
chain: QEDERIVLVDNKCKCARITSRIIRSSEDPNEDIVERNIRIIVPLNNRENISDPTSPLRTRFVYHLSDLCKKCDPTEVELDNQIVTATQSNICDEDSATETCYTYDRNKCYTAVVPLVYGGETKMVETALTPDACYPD
B7: Anti-PD-1 IgG #1 (antibody, V domains shown)
VH: EVQLQESGPGLVKPSQTLSLTCTVTGYSITSDYAWNWIRQPPGKKLEWMGYINYSGSTSYNPSLKSRVTISRDTSKNQFSLKLSSVTAADTAVYYCARWIGSSAWYFDVWGQGTLVTVS
VL: DVLMTQTPLSLSVTPGQPASISCRSGQNIVHSNGNTYLEWYLQKPGQSPKLLIYKVSNRFFGVPDRISGSGSGTDFTLKISRVEAEDVGVYFCFQGSHVPFTFGQGTKLEIK
notes: IgG format; In the 'IgG/xlink' columns it was crosslinked 1:1 with goat anti-human IgG F(ab')2 fragment; also called Antibody #1 (IgG format)
B8: Anti-PD-1 Hexameric IgM (IgHM) #1 (antibody, V domains shown)
VH: B7 VH
VL: B7 VL
B9: Anti-PD-1 IgM #1 (antibody)
VH: B7 VH
VL: B7 VL
chain: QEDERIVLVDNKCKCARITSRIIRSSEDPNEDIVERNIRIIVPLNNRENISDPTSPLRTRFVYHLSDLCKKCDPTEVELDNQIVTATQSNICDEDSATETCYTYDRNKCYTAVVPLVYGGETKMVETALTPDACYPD
notes: also called Antibody #1 (IgM format); pentameric IgM #1
B10: Anti-PD-1 IgG #2 (antibody, V domains shown)
VH: QVQLQESGPGVVKPSGTLSLTCAISGGSIGSGGSIRSTRWWSWVRQSPGKGLEWIGEIYHSGSTNYNPSLKSRVTISLDKSRNHFSLRLNSVTAADTAVYYCARQDYGDSGDWYFDLWGKGTMVTVSS
VL: NFMLTQPHSVSESPGKTVTISCTRSSGSIASNSVQWYQQRPGSSPTTVIYEDNQRPSGVPDRFSGSIDSSSNSASLTVSGLKTEDEADYYCQSSDSSAVVFGSGTKLTVL
notes: IgG format; In the 'IgG/xlink' columns it was crosslinked 1:1 with goat anti-human IgG F(ab')2 fragment; also called Antibody #2 (IgG format); #2 IgG
B11: Anti-PD-1 IgM #2 (antibody)
VH: B10 VH
VL: B10 VL
chain: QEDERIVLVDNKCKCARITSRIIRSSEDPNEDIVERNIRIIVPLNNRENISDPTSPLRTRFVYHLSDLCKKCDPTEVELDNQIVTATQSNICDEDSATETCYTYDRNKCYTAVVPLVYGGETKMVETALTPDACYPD
notes: also called Antibody #2 (IgM format); pentameric IgM #2
B12: Anti-PD-1 Hexameric IgM (IgHM) #2 (antibody, V domains shown)
VH: B10 VH
VL: B10 VL

What was measured:
[1] = target: T3, PD-1 on PD-1 reporter Jurkat cells (PATHHUNTER Checkpoint Signaling Assay) (UniProt Q15116 25-288); assay: cell-based or functional assay
[2] = target: T3, PD-1 on PD-1 reporter Jurkat cells …; assay: cell-based or functional assay; remark: listed apart in the source
[3] = target: T3, PD-1 on PD-1 reporter Jurkat cells …; assay: cell-based or functional assay; remark: listed apart in the source
[4] = target: T3, PD-1 on PD-1 reporter Jurkat cells …; assay: cell-based or functional assay; remark: listed apart in the source
[5] = target: T4, Human PD-1 overexpressed on HEK293 cells (human, UniProt Q15116 25-288); assay: flow cytometry on HEK293 cells overexpressing human PD-1, PE anti-human IgG detection
T4 construct: whole, on cells
Experimental: (§1) HEK293 cells were modified to overexpress human or mouse PD-1. Cells were expanded in puromycin-containing media to maintain selection, and aliquoted to 96 well V-bottom plates for antibody staining and flow cytometric analysis. Anti-PD-1 antibodies were added to cells in BD stain buffer with fetal bovine serum (BD Biosciences, cat. #554656) and incubated on ice for 20 minutes. Cells were then washed, and R-phycoerythrin (PE)-labeled anti-human IgG or anti-human IgM secondary antibodies were then added and incubated for an additional 20 minutes. Data were collected on a Beckman Coulter CYTOFLEX® cytometer and analyzed in FLOWJO™.

[6] = target: T1, Mouse PD-1 overexpressed on HEK293 cells; assay: flow cytometry on HEK293 cells overexpressing mouse PD-1
Experimental: as §1

[7] = target: T5, Recombinant human PD-1 extracellular domain (with an immunoglobulin Fc region or a His tag) (human, UniProt Q15116 25-170); assay: ELISA, plate-coated recombinant PD-1 extracellular domain, HRP anti-human IgG detection
T5 construct: extracellular domain; Coated on ELISA plates; not shown: either an immunoglobulin Fc region or a His tag
Experimental: (§2) An enzyme-linked immunosorbent assay (ELISA) was performed to assess the binding of anti-PD-1 antibodies to human, cynomolgus monkey, or mouse PD-1. Recombinant proteins containing the extracellular domain of PD-1 together with either an immunoglobulin Fc region or a His tag were used to coat wells of standard 96 well ELISA plates by overnight incubation at 4° C. Unbound recombinant protein was removed, Pierce SUPERBLOCK™ T20 was added, and plates were incubated for 10 minutes at room temperature with shaking. Plates were washed with phosphate buffered saline-TWEEN-20 (PBST), and anti-PD-1 antibodies were added in phosphate buffered saline (PBS) with 1% bovine serum albumin (BSA) and incubated for one hour at room temperature with shaking. Plates were then washed in PBST and incubated with horse radish peroxidase (HRP)-conjugated secondary antibodies in F(ab′)2 directed to either human IgG or human IgM. After one hour, plates were washed again with PBST, signal was developed with SUPERSIGNAL™ ELISA Pico substrate, and an ENVISION® luminometer (PerkinElmer) was used to record signal. Data were analyzed with […] PRISM®.

[8] = target: T2, Recombinant mouse PD-1 extracellular …; assay: ELISA, plate-coated recombinant PD-1 extracellular domain
Experimental: as §2

[9] = target: T4, Human PD-1 overexpressed on HEK293 cells; assay: flow cytometry on HEK293 cells overexpressing human PD-1, PE anti-human IgM detection
Experimental: as §1

[10] = target: T5, Recombinant human PD-1 extracellular …; assay: ELISA, plate-coated recombinant PD-1 extracellular domain, HRP anti-human IgM detection
Experimental: as §2

T5 sequence (Q15116 25-170): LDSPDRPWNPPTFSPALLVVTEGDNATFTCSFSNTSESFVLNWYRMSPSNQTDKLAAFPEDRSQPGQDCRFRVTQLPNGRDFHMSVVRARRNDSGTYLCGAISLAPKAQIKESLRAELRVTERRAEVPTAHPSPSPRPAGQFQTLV
T4 sequence (Q15116 25-288): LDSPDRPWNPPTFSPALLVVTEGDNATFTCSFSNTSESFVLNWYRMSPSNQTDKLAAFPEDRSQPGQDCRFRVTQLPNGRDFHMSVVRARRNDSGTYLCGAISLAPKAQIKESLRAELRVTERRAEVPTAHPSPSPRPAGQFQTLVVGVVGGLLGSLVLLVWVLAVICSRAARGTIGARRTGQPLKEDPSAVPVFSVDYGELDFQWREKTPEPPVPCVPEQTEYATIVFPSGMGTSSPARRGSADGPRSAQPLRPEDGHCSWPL
T3 sequence (Q15116 25-288): as above

Binder | PD-1 Signaling EC50 (second incubation at 4 C), IgG [1] [nM] | PD-1 Signaling EC50 (second incubation at 4 C), IgG/xlink (crosslinked IgG) [1] [nM] | PD-1 Signaling EC50 (second incubation at 4 C), IgM [1] [nM] | PD-1 Signaling EC50 (method of Example 8), IgM [2] [nM] | binding result [6] | binding result [8] | further results
B1 | 0.89 | 1.7 |  |  |  |  | 
B2 |  |  | 1.1 |  |  |  | 
B3 | 0.19 | 0.19 |  |  |  |  | PD-1 Signaling EC50 (method of Example 8), IgG [2]: 0.26 nM; PD-1 Signaling EC50 (method of Example 8), IgG/xlink (crosslinked IgG) [2]: 0.79 nM
B4 |  |  | 0.065 | 0.13 |  |  | 
B5 |  |  |  |  |  |  | PD-1 Signaling EC50 (method of Example 8), IgHM [2]: 0.2 nM
B6 |  |  |  | 0.03 |  |  | 
B7 | 29 | 4.4 |  |  | no binding | no binding | PD-1 Signaling EC50 (PATHHUNTER Checkpoint Signaling Assay, reporter Jurkat cells), IgG [3]: 65 nM; PD-1 Signaling EC50, IgG/xlink (IgG crosslinked 1:1 with goat anti-human IgG F(ab')2 fragment) [4]: 0.65 nM; EC50 [5]: 59 nM; EC50 [7]: 1.5 nM; PD-1 Signaling EC50 (method of Example 8), IgG [2]: 85 nM; PD-1 Signaling EC50 (method of Example 8), IgG/xlink (crosslinked IgG) [2]: 1.8 nM
B8 |  |  |  |  |  |  | PD-1 Signaling EC50 (method of Example 8), IgHM [2]: 0.07 nM
B9 |  |  | 0.031 | 0.057 | no binding | no binding | PD-1 Signaling EC50 (PATHHUNTER Checkpoint Signaling Assay, reporter Jurkat cells), IgM [3]: 0.014 nM; EC50 [9]: 0.2 nM; EC50 [10]: 0.087 nM
B10 | 5.9 | 2.1 |  |  | no binding | no binding | PD-1 Signaling EC50, IgG/xlink (IgG crosslinked 1:1 with goat anti-human IgG F(ab')2 fragment) [4]: 4.8 nM; EC50 [5]: 2.9 nM; EC50 [7]: 0.6 nM; PD-1 Signaling EC50 (method of Example 8), IgG [2]: 22 nM; PD-1 Signaling EC50 (method of Example 8), IgG/xlink (crosslinked IgG) [2]: 3.8 nM
B11 |  |  | 0.1 | 0.29 | no binding | no binding | PD-1 Signaling EC50 (PATHHUNTER Checkpoint Signaling Assay, reporter Jurkat cells), IgM [3]: 0.72 nM; EC50 [10]: 0.35 nM
B12 |  |  |  |  |  |  | PD-1 Signaling EC50 (method of Example 8), IgHM [2]: 0.4 nM

From patent US20230212293A1 (published 2023)
